“Also recorded” adds a separate entry of the source.
Key:
[1] = tested on: breast epithelial cells (MCF10A); experiment: CCK8 cell viability detection, MCF10A; assay type: cell-based; details: with the increase of GhJAZ1 protein concentration
Description: (§1) CCK8 cell viability detection: cell suspension was seeded in 96-well plates at a concentration of 5×10^4 cells/ml (100 μL/well). The plates were placed in the incubator for pre-culture (at 37° C., 5% CO2), and control and protein agents were added to each well 24 h after seeding. The plates were then placed in the incubator for 24 h, followed by addition of 10 μL CCK8 solution into each well and incubation of the plates in the incubator for 0.5-2 h before the absorbance measurement at 450 nm using a microplate reader.
We constructed GhJAZ1 prokaryotic expression plasmid with His-tag to express proteins (see step 2 in Example 4), and then a GhJAZ1 protein, along with 6 His tags, which was approximately 30 KD in size was found by WB detection (A in FIG. 7). The purified GhJAZ1 protein was used to treat breast cancer cells (MCF7) and breast epithelial cells (MCF10A), and the cell viability was measured with CCK8.

ATF domain of uPA = biological target: T1, ATF domain of uPA (Homo sapiens, UniProt P00749); experiment: Yeast two hybrid with ATF domain of uPA; assay type: binding
T1 construct: expressed in transfected cells
From the text: […]
In order to explore how GhJAZ1 enters cancer cells, we cloned the genes of most tumor surface receptors, including uPAR (NCBI database accession number of NM_002659.4), CCK1R (NP_000721.1), CCK2R (NP_001350481.1), HER2 (NP_004439.2), GRPR (NP_005305.1), MUC1 (NP_001358649.1), VEGFR1 (NP_002010.2), Insulin receptor (NM_000208.4), NTR (XM_011528827.2), PSMA (XM_017017432.1), TFR1 (NM_001128148.3), TFR2 (NM_003227.4), PEPT1 (NM_005073.4), APN (NM_001150.3). […] We detected the interaction of GhJAZ1 with uPA (as the ligand of uPAR, NCBI database accession number of NP_002649.2) and uPAR by yeast two hybrid (the steps of the experiment as Example 3). […]

[2] = tested on: cervical cancer cells Hela; experiment: CCK8 cell viability detection, Hela; assay type: cell-based, human; details: CCK8, 24 h treatment; read-out: IC50, inhibition of Hela cells
Description: as §1
Analysis of effect of GhJAZ1 protein on the cell cycle and apoptosis of tumor cells

B1: GhJAZ1: cotton JAZ1 protein, gene number Gh_A05G0260, sequence SEQ ID No. 4; prokaryotically expressed with His tag, about 30 KD (protein)
chain: MSSCSESTAMKPARSPEKPSFAQTCNLLSQYLKEKGSFGDLSLGMTCNVEANGTPVVPPPTMNLFPLNDKSDDVCGRNGGNPKNLTSMDLFPQQAGLASKDDSPNKLEPQTAPMTIFYGGQVIVFNDFPANKAKEIMLLASNSSSQSNNSFNPIPFTSSIARSPIESSIGVPPTSKPVHPAQRAVPGDLPIARRASLHRFLEKRKDRITAKAPYQINNSAAAPSLSGDNKSWLGLAAQSP
modifications: His tag
notes: prokaryotically expressed with His tag, about 30 KD
viability of MCF10A cells [1]: did not change significantly; also recorded: without inhibitory effect
interaction with the ATF domain of uPA (ATF domain of uPA): interacts
IC50 [2]: 553 nM
